Experiments:
[1] = molecular target: T1, recombinant MBP-EDIII of DENV1 (Dengue virus 1, strain Guiana/FGA89/1989, strain); assay: SPR; settings: both partners purified
T1 construct: also called DENV1 EDIII; envelope protein domain III of DENV1; not shown: MBP, N-terminal, kept

[2] = molecular target: T2, recombinant MBP-EDIII of DENV3 (Dengue virus 3, strain …, UniProt P27915, strain); assay: SPR; settings: both partners purified
T2 construct: also called DENV3 EDIII; envelope protein domain III of DENV3; not shown: MBP, N-terminal, kept

| Binder | Kd [1] [nM] | koff [1] [s⁻¹] | kon [1] [M⁻¹ s⁻¹] | Kd [2] [nM] | koff [2] [s⁻¹] | kon [2] [M⁻¹ s⁻¹] |
| --- | --- | --- | --- | --- | --- | --- |
| 1A1D-2 Fab WT (Fab, V domains shown, also called 1A1D-2 WT) VH: EVQLQQSGAELVKPGASVKLSCTASGFNIKDTYMHWVKQRPEQGLEWIGRIDPANGYSKYDPKFQGKATITADTSSNAAYLQLSSLTSEDTAVYFCARDYEGFAYWGQGTLVTVSS VL: DIVLTQSPASLAVSLGQRATISCRASESVVRYGNSFMHWYQQKPGQPPKLLIYRASSLESGIPTRFSGSGSRTDFTLTINPVEADDVATYYCQQTNVDPWAFGGGTKLEIK | 216 | 0.00755 | 34900 | 91 | 0.00792 | 87000 |
| 1A1D-2 Fab A54E-Y105R double mutant (Fab, V domains shown) VH: EVQLQQSGAELVKPGASVKLSCTASGFNIKDTYMHWVKQRPEQGLEWIGRIDPENGYSKYDPKFQGKATITADTSSNAAYLQLSSLTSEDTAVYFCARDYEGFARWGQGTLVTVSS VL: DIVLTQSPASLAVSLGQRATISCRASESVVRYGNSFMHWYQQKPGQPPKLLIYRASSLESGIPTRFSGSGSRTDFTLTINPVEADDVATYYCQQTNVDPWAFGGGTKLEIK | 27.4 | 0.0012 | 43900 | 7.11 | 0.00158 | 222000 |
| 1A1D-2 Fab A54E.H (Fab, V domains shown) VH: EVQLQQSGAELVKPGASVKLSCTASGFNIKDTYMHWVKQRPEQGLEWIGRIDPENGYSKYDPKFQGKATITADTSSNAAYLQLSSLTSEDTAVYFCARDYEGFAYWGQGTLVTVSS VL: DIVLTQSPASLAVSLGQRATISCRASESVVRYGNSFMHWYQQKPGQPPKLLIYRASSLESGIPTRFSGSGSRTDFTLTINPVEADDVATYYCQQTNVDPWAFGGGTKLEIK | 140 | 0.00617 | 44300 | 10.3 | 0.00364 | 354000 |
| 1A1D-2 Fab Y105R.H (Fab, V domains shown) VH: EVQLQQSGAELVKPGASVKLSCTASGFNIKDTYMHWVKQRPEQGLEWIGRIDPANGYSKYDPKFQGKATITADTSSNAAYLQLSSLTSEDTAVYFCARDYEGFARWGQGTLVTVSS VL: DIVLTQSPASLAVSLGQRATISCRASESVVRYGNSFMHWYQQKPGQPPKLLIYRASSLESGIPTRFSGSGSRTDFTLTINPVEADDVATYYCQQTNVDPWAFGGGTKLEIK | 42.6 | 0.00185 | 43500 | 49.2 | 0.00419 | 85200 |

— paper PMC9027083 (International Journal of Molecular Sciences, 2022)
